Laboratory results: article PMC7615972, “Cachd1 interacts with Wnt receptors and regulates neuronal asymmetry in the zebrafish brain” (Science (New York, N.Y.), 2024)

T1: purified mouse CACHD1 extracellular domain (CACHD1ECD) (mouse, UniProt Q6PDJ1 50-1109)
T1 construct: CACHD1, mouse, extracellular domain; Construct limits and tags are in the supplementary methods; also called mouse CACHD1ECD; source: purified recombinant
T1 sequence (looked up): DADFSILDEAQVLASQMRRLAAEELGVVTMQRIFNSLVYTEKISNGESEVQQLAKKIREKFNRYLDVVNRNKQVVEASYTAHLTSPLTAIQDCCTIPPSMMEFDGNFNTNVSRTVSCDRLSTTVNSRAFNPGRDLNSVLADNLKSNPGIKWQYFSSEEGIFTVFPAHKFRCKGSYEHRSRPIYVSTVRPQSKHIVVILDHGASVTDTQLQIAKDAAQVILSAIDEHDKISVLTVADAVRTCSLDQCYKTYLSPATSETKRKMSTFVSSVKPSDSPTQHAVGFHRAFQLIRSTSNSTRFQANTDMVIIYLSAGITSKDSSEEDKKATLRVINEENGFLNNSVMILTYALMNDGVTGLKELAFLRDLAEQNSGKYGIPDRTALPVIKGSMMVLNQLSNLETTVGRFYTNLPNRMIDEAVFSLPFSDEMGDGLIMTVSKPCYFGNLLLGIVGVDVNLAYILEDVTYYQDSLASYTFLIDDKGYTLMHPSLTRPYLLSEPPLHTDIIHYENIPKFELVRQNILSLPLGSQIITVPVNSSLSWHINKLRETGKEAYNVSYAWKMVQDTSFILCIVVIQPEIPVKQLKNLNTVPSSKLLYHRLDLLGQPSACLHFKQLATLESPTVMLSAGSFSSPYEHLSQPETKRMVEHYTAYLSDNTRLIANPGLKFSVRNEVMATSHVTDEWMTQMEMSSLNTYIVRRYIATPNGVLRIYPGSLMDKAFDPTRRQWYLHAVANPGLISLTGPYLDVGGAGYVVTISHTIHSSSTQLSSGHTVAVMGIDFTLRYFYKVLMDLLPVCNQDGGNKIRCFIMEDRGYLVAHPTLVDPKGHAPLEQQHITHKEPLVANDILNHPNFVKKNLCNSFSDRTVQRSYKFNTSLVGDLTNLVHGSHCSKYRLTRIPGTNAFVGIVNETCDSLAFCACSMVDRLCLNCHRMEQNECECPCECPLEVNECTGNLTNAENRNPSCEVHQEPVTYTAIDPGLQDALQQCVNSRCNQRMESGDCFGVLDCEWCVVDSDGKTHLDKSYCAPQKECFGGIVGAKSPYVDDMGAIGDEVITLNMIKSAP

B1: mouse FZD5 cysteine-rich domain (FZD5CRD) (domain or fragment)
chain: ASKAPVCQEITVPMCRGIGYNLTHMPNQFNHDTQDEAGLEVHQFWPLVEIHCSPDLRFFLCSMYTPICLPDYHKPLPPCRSVCERAKAGCSPLMRQYGFAWPERMSCDRLPVLGGDAEVLCMDYNRSEAT
notes: Frizzled-5, mouse, cysteine-rich domain (CRD); source: purified recombinant
B2: human LRP6 membrane proximal fragment (LRP6_(P3E3P4E4)) (domain or fragment)
chain: VPEAFLLFSRRADIRRISLETNNNNVAIPLTGVKEASALDFDVTDNRIYWTDISLKTISRAFMNGSALEHVVEFGLDYPEGMAVDWLGKNLYWADTGTNRIEVSKLDGQHRQVLVWKDLDSPRALALDPAEGFMYWTEWGGKPKIDRAAMDGSERTTLVPNVGRANGLTIDYAKRRLYWTDLDTNLIESSNMLGLNREVIADDLPHPFGLTQYQDYIYWTDWSRRSIERANKTSGQNRTIIQGHLDYVMDILVFHSSRQSGWNECASSNGHCSHLCLAVPVGGFVCGCPAHYSLNADNRTCSAPTTFLLFSQKSAINRMVIDEQQSPDIILPIHSLRNVRAIDYDPLDKQLYWIDSRQNMIRKAQEDGSQGFTVVVSSVPSQNLEIQPYDLSIDIYSRYIYWTCEATNVINVTRLDGRSVGVVLKGEQDRPRAVVVNPEKGYMYFTNLQERSPKIERAALDGTEREVLFFSGLSKPIALALDSRLGKLFWADSDLRRIESSDLSGANRIVLEDSNILQPVGLTVFENWLYWIDKQQQMIEKIDMTGREGRTKVQARIAQLSDIHAVKELNLQEYRQHPCAQDNGGCSHICLVKGDGTTRCSCPMHLVLLQDELSCG
notes: LRP6, human, membrane proximal fragment P3E3P4E4; also called 3-4

Biological target: T1, purified mouse CACHD1 extracellular …
Assay: SPR; mouse CACHD1ECD as analyte; FZD CRDs or LRP6 fragments immobilised; equilibrium dissociation constants
Details: both partners purified

| Binder | Kd [nM] |
| --- | --- |
| B1 | 480 ± 40 |
| B2 | 170 ± 10 |
